Source: the supplement of paper PMC10567573

B1: KLHL13 (parent)
chain: TGEFLKLPFERLAFVLSSNSLKHC

Variants of: B1
Assay: protein stability index of a GFP-peptide fusion (GPS, HEK-293T) (PSI 1-6); higher = more stable
Details: c terminus: a fixed tail appended
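Further: lentivirally expressed fusions sorted by FACS into six bins by GFP to DsRed ratio, PSI derived from sequencing read proportions per bin multiplied by bin number.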

Variant | protein stability index
TGEFLKLPFERLAFNLSSNSLKHC [V15N] | 1.95
TGEFLKLPFERLAFELSSNSLKHC [V15E] | 1.78
TGEFLKLPFERLAFDLSSNSLKHC [V15D] | 1.82
TGEFLKLPFERLAFSLSSNSLKHC [V15S] | 2.32
TGEFLKLPFERLAFWLSSNSLKHC [V15W] | 3.3
TGEFLKLPFERLAFQLSSNSLKHC [V15Q] | 2.31
TGEFLKLPFERLAFYLSSNSLKHC [V15Y] | 1.06
TGEFLKLPFERLAFKLSSNSLKHC [V15K] | 1.81
TGEFLKLPFERLAFILSSNSLKHC [V15I] | 2
TGEFLKLPFERLAFFLSSNSLKHC [V15F] | 2.39
TGEFLKLPFERLAFRLSSNSLKHC [V15R] | 1.53
TGEFLKLPFERLAFTLSSNSLKHC [V15T] | 1.59
TGEFLKLPFERLAFALSSNSLKHC [V15A] | 1.84
TGEFLKLPFERLAFLLSSNSLKHC [V15L] | 3.05
TGEFLKLPFERLAFPLSSNSLKHC [V15P] | 2.53
TGEFLKLPFERLAFVLSSQSLKHC [N19Q] | 1.81
TGEFLKLPFERLAFVLSSRSLKHC [N19R] | 2.56
TGEFLKLPFERLAFVLSSKSLKHC [N19K] | 2.22
TGEFLKLPFERLAFVLSSMSLKHC [N19M] | 3.78
TGEFLKLPFERLAFVLSSVSLKHC [N19V] | 2.24
TGEFLKLPFERLAFVLSSDSLKHC [N19D] | 1.56
TGEFLKLPFERLAFVLSSTSLKHC [N19T] | 2.98
TGEFLKLPFERLAFVLSSWSLKHC [N19W] | 3.01
TGEFLKLPFERLAFVLSSGSLKHC [N19G] | 3.21

Variant | protein stability index
TGEFLKLPFERLAFVLSSESLKHC [N19E] | 2.44
TGEFLKLPFERLAFVLSSPSLKHC [N19P] | 2.62
TGEFLKLPFERLAFVLSSLSLKHC [N19L] | 3.66
TGEFLKLPFERLAFVLSSCSLKHC [N19C] | 4.21
TGEFLKLPFERLAFVLSSYSLKHC [N19Y] | 3.05
TGEFLKLPFERLAFVLRSNSLKHC [S17R] | 2.82
TGEFLKLPFERLAFVLASNSLKHC [S17A] | 3.79
TGEFLKLPFERLAFVLCSNSLKHC [S17C] | 5.02
TGEFLKLPFERLAFVLKSNSLKHC [S17K] | 1.05
TGEFLKLPFERLAFVLPSNSLKHC [S17P] | 1.7
TGEFLKLPFERLAFVLYSNSLKHC [S17Y] | 2.46
TGEFLKLPFERLAFVLESNSLKHC [S17E] | 1.86
TGEFLKLPFERLAFVLISNSLKHC [S17I] | 1.71
TGEFLKLPFERLAFVLLSNSLKHC [S17L] | 2.06
TGEFLKLPFERLAFVLNSNSLKHC [S17N] | 2.33
TGEFLKLPFERLAFVLDSNSLKHC [S17D] | 1.06
TGEFLKLPFERLAFVLWSNSLKHC [S17W] | 3.66
TGEFLKLPFERLAFVLQSNSLKHC [S17Q] | 1.72
TGEFLKLPFERLAFVLMSNSLKHC [S17M] | 2.2
TGEFLKLPFERLADVLSSNSLKHC [F14D] | 1.98
TGEFLKLPFERLASVLSSNSLKHC [F14S] | 2.21
TGEFLKLPFERLAKVLSSNSLKHC [F14K] | 1.79
TGEFLKLPFERLANVLSSNSLKHC [F14N] | 2.33
TGEFLKLPFERLAMVLSSNSLKHC [F14M] | 2.74

Variant | protein stability index
TGEFLKLPFERLAHVLSSNSLKHC [F14H] | 1.8
TGEFLKLPFERLACVLSSNSLKHC [F14C] | 1.95
TGEFLKLPFERLAVVLSSNSLKHC [F14V] | 1.13
TGEFLKLPFERLAGVLSSNSLKHC [F14G] | 2.54
TGEFLKLPFERLAQVLSSNSLKHC [F14Q] | 1.66
TGEFLKLPFERLAWVLSSNSLKHC [F14W] | 3.04
TGEFLKLPFERLAPVLSSNSLKHC [F14P] | 2.69
TGEFLKLPFERLATVLSSNSLKHC [F14T] | 2.21
TGEFLKLPFERLARVLSSNSLKHC [F14R] | 1.4
TGEFLKLPFERLAAVLSSNSLKHC [F14A] | 1.42
TGEFLKLPFERLAEVLSSNSLKHC [F14E] | 2.33
TGEFLKLPFERLALVLSSNSLKHC [F14L] | 2.31
TGEFLKLPFERLAYVLSSNSLKHC [F14Y] | 2.36
TGEFLKLPFLRLAFVLSSNSLKHC [E10L] | 2.88
TGEFLKLPFWRLAFVLSSNSLKHC [E10W] | 3.59
TGEFLKLPFHRLAFVLSSNSLKHC [E10H] | 2.69
TGEFLKLPFSRLAFVLSSNSLKHC [E10S] | 2.96
TGEFLKLPFNRLAFVLSSNSLKHC [E10N] | 1.99
TGEFLKLPFMRLAFVLSSNSLKHC [E10M] | 3.02
TGEFLKLPFDRLAFVLSSNSLKHC [E10D] | 3.16
TGEFLKLPFGRLAFVLSSNSLKHC [E10G] | 2.42
TGEFLKLPFCRLAFVLSSNSLKHC [E10C] | 2.48
TGEFLKLPFQRLAFVLSSNSLKHC [E10Q] | 2.03
TGEFLKLPFTRLAFVLSSNSLKHC [E10T] | 2.76

Variant | protein stability index
TGEFLKLPFPRLAFVLSSNSLKHC [E10P] | 2.75
TGEFLKLPFYRLAFVLSSNSLKHC [E10Y] | 3.3
TGEFLKLPFKRLAFVLSSNSLKHC [E10K] | 2.76
TGEFLKLPFARLAFVLSSNSLKHC [E10A] | 3.65
TGEFLKLPFRRLAFVLSSNSLKHC [E10R] | 4.24
TGEFLKLPFECLAFVLSSNSLKHC [R11C] | 2.12
TGEFLKLPFETLAFVLSSNSLKHC [R11T] | 4.01
TGEFLKLPFEYLAFVLSSNSLKHC [R11Y] | 4.43
TGEFLKLPFEALAFVLSSNSLKHC [R11A] | 3.93
TGEFLKLPFESLAFVLSSNSLKHC [R11S] | 3.23
TGEFLKLPFEPLAFVLSSNSLKHC [R11P] | 3.17
TGEFLKLPFEVLAFVLSSNSLKHC [R11V] | 3.99
TGEFLKLPFEQLAFVLSSNSLKHC [R11Q] | 3.1
TGEFLKLPFEKLAFVLSSNSLKHC [R11K] | 3.47
TGEFLKLPFEWLAFVLSSNSLKHC [R11W] | 2.11
TGEFLKLPFEHLAFVLSSNSLKHC [R11H] | 1.62
TGEFLKLPFEELAFVLSSNSLKHC [R11E] | 2.48
TGEFLKLPFENLAFVLSSNSLKHC [R11N] | 3.3
TGEFLKLPFEFLAFVLSSNSLKHC [R11F] | 3.1
TGEFLKLPFEGLAFVLSSNSLKHC [R11G] | 2.54
TGEFLKLPFEDLAFVLSSNSLKHC [R11D] | 2.08
TGEFLKLPFEMLAFVLSSNSLKHC [R11M] | 3.39
